Source: patent US20160168251A1 (MorphoSys, published 2016)

Experiments:
[1] = molecular target: T1, rat NPRA on HEK cells bound to ANP (rat, UniProt P18910 29-1057; P01161 123-150); assay: KinExA whole cell binding (Kd,app), HEK cells with rat NPRA, ANP bound
T1 construct: whole, on cells;mature; also called HEK293T-GCA
T1 sequence (looked up): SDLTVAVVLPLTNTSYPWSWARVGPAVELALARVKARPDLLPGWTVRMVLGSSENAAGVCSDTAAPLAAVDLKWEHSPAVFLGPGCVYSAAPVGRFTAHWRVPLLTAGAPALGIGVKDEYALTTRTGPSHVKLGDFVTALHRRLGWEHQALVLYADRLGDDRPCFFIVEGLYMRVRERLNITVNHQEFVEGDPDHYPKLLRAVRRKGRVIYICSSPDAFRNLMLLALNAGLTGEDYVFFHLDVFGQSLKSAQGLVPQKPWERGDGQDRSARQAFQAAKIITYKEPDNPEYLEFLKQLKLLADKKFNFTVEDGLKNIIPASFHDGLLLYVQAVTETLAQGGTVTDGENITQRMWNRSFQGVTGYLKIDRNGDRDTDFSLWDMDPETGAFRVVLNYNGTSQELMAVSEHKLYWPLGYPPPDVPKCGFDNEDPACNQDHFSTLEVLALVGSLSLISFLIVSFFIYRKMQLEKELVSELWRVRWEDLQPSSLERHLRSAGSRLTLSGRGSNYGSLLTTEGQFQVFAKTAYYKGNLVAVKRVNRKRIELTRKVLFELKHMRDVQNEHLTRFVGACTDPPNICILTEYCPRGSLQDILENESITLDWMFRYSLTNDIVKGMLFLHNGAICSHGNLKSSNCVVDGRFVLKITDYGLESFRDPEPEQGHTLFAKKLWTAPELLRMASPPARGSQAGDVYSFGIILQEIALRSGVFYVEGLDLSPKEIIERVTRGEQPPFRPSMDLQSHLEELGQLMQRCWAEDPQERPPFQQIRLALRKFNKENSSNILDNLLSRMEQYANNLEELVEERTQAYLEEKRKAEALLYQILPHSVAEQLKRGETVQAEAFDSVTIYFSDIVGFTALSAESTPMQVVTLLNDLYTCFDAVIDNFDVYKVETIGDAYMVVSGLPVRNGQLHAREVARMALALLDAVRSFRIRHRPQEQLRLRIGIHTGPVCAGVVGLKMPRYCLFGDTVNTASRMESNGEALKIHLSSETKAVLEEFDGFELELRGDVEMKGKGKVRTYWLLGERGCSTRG
T1 sequence (peptide, looked up): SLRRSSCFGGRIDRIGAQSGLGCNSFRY

[2] = molecular target: T2, rhesus monkey NPRA on HEK cells bound to ANP (rhesus monkey, UniProt F7HE88 33-1061; P01160 124-151, chain 2: ANP is cyclic, its 17-residue ring closed by a disulfide bond between its two cysteines); assay: KinExA whole cell binding (Kd,app), HEK cells with rhesus NPRA, ANP bound
T2 construct: also called Rhesus NPRA
T2 sequence: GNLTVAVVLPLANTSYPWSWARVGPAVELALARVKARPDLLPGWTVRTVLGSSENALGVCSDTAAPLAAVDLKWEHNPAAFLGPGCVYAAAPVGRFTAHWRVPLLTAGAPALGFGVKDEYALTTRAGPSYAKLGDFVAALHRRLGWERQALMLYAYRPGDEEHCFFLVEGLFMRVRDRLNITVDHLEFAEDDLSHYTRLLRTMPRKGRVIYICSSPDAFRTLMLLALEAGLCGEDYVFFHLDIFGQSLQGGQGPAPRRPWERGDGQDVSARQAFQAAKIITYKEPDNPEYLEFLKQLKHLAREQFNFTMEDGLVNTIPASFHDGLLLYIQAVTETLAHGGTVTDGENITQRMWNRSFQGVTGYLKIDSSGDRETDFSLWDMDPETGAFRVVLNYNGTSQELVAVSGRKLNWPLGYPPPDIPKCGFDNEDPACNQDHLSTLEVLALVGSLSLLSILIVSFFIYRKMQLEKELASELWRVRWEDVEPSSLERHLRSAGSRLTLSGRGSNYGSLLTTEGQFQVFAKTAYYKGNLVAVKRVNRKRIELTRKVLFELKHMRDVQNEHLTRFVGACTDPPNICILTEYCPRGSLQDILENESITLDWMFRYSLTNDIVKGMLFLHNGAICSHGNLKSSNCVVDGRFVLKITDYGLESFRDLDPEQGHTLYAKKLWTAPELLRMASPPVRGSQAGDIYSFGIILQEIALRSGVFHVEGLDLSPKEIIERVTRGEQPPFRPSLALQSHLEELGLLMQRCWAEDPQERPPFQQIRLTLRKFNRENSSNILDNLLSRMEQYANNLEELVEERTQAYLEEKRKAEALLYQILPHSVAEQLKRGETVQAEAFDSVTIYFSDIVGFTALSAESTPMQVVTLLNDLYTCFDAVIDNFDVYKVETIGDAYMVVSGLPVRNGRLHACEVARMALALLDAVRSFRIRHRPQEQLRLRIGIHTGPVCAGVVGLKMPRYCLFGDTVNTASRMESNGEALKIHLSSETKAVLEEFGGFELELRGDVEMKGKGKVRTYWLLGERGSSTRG
T2 sequence (peptide): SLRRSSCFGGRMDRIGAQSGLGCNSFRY
Procedure: Initial species cross-reactivity studies are performed using HEK cell lines overexpressing rat, canine and rhesus monkey NPRA. […] These apparent Kd values are obtained by globally fitting the data for two antibody concentrations.

B1: 5591 IgG4_Pro (antibody, V domains shown)
VH: QVQLQQSGPGLVKPSQTLSLTCAISGDSVSSRSASWSWIRQSPGRGLEWLGRTYYRSHWYYEYAQSVKSRITINPDTSKNQFSLQLNSVTPEDTAVYYCARMDVPSFRYFDVWGQGTLVTVSS
VL: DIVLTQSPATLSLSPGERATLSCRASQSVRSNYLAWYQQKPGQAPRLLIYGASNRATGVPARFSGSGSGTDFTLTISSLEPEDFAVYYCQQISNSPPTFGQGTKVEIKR
- Kd [1]: 13 pM
- Kd [2]: 266 pM
